Assay results: patent publication US20260209293A1 (Novo Nordisk, published 2026)
*1 amine or outer side, *2 acyl side, *3 side chain or, on linkers, in order; H or OH if unused. The star is where a group is joined. C20 diacid = O=C(O)CCCCCCCCCCCCCCCCCCC(=O)*; C18 diacid = O=C(O)CCCCCCCCCCCCCCCCC(=O)*; γGlu = O=C(O)[C@H](CCC(=O)[*:2])N[*:1]

T1: human amylin-3(a) receptor (human, UniProt P30988 25-474; O60896 24-148)
T1 sequence (looked up) 1: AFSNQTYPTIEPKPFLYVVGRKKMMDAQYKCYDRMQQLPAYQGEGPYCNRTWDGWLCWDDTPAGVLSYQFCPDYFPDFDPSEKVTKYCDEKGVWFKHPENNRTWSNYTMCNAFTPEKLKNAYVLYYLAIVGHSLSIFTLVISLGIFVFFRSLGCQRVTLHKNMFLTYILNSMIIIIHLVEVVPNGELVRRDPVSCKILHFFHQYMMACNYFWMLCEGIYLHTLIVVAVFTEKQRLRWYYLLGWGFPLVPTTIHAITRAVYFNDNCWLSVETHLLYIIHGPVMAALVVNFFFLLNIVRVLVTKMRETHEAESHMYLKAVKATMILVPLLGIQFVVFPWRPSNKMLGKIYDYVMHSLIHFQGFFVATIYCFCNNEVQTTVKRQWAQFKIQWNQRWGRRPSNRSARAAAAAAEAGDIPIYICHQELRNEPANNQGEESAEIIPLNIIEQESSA
T1 sequence (looked up) 2: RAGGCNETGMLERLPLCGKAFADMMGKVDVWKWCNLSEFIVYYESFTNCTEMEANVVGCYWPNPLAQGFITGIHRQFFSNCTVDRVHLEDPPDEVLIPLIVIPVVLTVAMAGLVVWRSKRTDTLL

T2: human calcitonin receptor (a) (human, UniProt P30988 25-474)
T2 sequence (looked up): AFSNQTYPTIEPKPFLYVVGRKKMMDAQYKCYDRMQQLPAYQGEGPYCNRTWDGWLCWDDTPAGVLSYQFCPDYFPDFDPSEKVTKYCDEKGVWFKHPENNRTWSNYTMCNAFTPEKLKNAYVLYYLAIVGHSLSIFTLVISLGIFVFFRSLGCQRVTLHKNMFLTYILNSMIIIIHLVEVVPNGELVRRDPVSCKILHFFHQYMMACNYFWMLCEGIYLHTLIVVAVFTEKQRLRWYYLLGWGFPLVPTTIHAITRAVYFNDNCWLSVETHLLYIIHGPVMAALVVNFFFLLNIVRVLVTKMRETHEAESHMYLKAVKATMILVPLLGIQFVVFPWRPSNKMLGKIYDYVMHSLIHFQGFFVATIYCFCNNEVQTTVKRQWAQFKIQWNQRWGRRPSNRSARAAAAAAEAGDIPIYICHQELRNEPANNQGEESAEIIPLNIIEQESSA


Assays:
[1] = target: T1, human amylin-3(a) receptor; experiment: cell-based or functional assay
[2] = target: T2, human calcitonin receptor (a); experiment: cell-based or functional assay

| hAmyR3 potency, EC50 (pM); CRE-luciferase reporter in BHK cells [1] | hCalcR potency, EC50 (pM); CRE-luciferase reporter in BHK cells [2] | Binder |
| --- | --- | --- |
| 2.06 pM | 1.72 pM | {C18 diacid-γGlu}-ASHLSTAQTQRLAEFLHHFGPILPPTDVGSETP-NH2 (SMILES CC[C@H](C)[C@H](NC(=O)[C@@H]1CCCN1C(=O)CNC(=O)[C@H](Cc1ccccc1)NC(=O)[C@H](Cc1c[nH]cn1)NC(=O)[C@H](Cc1c[nH]cn1)NC(=O)[C@H](CC(C)C)NC(=O)[C@H](Cc1ccccc1)NC(=O)[C@H](CCC(=O)O)NC(=O)[C@H](C)NC(=O)[C@H](CC(C)C)NC(=O)[C@H](CCCNC(=N)N)NC(=O)[C@H](CCC(N)=O)NC(=O)[C@@H](NC(=O)[C@H](CCC(N)=O)NC(=O)[C@H](C)NC(=O)[C@@H](NC(=O)[C@H](CO)NC(=O)[C@H](CC(C)C)NC(=O)[C@H](Cc1c[nH]cn1)NC(=O)[C@H](CO)NC(=O)[C@H](C)NC(=O)CC[C@H](NC(=O)CCCCCCCCCCCCCCCCC(=O)O)C(=O)O)[C@@H](C)O)[C@@H](C)O)C(=O)N[C@@H](CC(C)C)C(=O)N1CCC[C@H]1C(=O)N1CCC[C@H]1C(=O)N[C@H](C(=O)N[C@@H](CC(=O)O)C(=O)N[C@H](C(=O)NCC(=O)N[C@@H](CO)C(=O)N[C@@H](CCC(=O)O)C(=O)N[C@H](C(=O)N1CCC[C@H]1C(N)=O)[C@@H](C)O)C(C)C)[C@@H](C)O) |
| 1.12 pM | 1.44 pM | {C20 diacid-γGlu}-ASHLSTAQTQRLAEFLHHFGPILPPTDVGSETP-NH2 (SMILES CC[C@H](C)[C@H](NC(=O)[C@@H]1CCCN1C(=O)CNC(=O)[C@H](Cc1ccccc1)NC(=O)[C@H](Cc1c[nH]cn1)NC(=O)[C@H](Cc1c[nH]cn1)NC(=O)[C@H](CC(C)C)NC(=O)[C@H](Cc1ccccc1)NC(=O)[C@H](CCC(=O)O)NC(=O)[C@H](C)NC(=O)[C@H](CC(C)C)NC(=O)[C@H](CCCNC(=N)N)NC(=O)[C@H](CCC(N)=O)NC(=O)[C@@H](NC(=O)[C@H](CCC(N)=O)NC(=O)[C@H](C)NC(=O)[C@@H](NC(=O)[C@H](CO)NC(=O)[C@H](CC(C)C)NC(=O)[C@H](Cc1c[nH]cn1)NC(=O)[C@H](CO)NC(=O)[C@H](C)NC(=O)CC[C@H](NC(=O)CCCCCCCCCCCCCCCCCCC(=O)O)C(=O)O)[C@@H](C)O)[C@@H](C)O)C(=O)N[C@@H](CC(C)C)C(=O)N1CCC[C@H]1C(=O)N1CCC[C@H]1C(=O)N[C@H](C(=O)N[C@@H](CC(=O)O)C(=O)N[C@H](C(=O)NCC(=O)N[C@@H](CO)C(=O)N[C@@H](CCC(=O)O)C(=O)N[C@H](C(=O)N1CCC[C@H]1C(N)=O)[C@@H](C)O)C(C)C)[C@@H](C)O) |
| 2.68 pM | 1.78 pM | {C18 diacid-γGlu}-ASHLSTAQTQRLAEFLHHSSEPFGAIPSSTEVGPETP-NH2 (SMILES CC[C@H](C)[C@H](NC(=O)[C@H](C)NC(=O)CNC(=O)[C@H](Cc1ccccc1)NC(=O)[C@@H]1CCCN1C(=O)[C@H](CCC(=O)O)NC(=O)[C@H](CO)NC(=O)[C@H](CO)NC(=O)[C@H](Cc1c[nH]cn1)NC(=O)[C@H](Cc1c[nH]cn1)NC(=O)[C@H](CC(C)C)NC(=O)[C@H](Cc1ccccc1)NC(=O)[C@H](CCC(=O)O)NC(=O)[C@H](C)NC(=O)[C@H](CC(C)C)NC(=O)[C@H](CCCNC(=N)N)NC(=O)[C@H](CCC(N)=O)NC(=O)[C@@H](NC(=O)[C@H](CCC(N)=O)NC(=O)[C@H](C)NC(=O)[C@@H](NC(=O)[C@H](CO)NC(=O)[C@H](CC(C)C)NC(=O)[C@H](Cc1c[nH]cn1)NC(=O)[C@H](CO)NC(=O)[C@H](C)NC(=O)CC[C@H](NC(=O)CCCCCCCCCCCCCCCCC(=O)O)C(=O)O)[C@@H](C)O)[C@@H](C)O)C(=O)N1CCC[C@H]1C(=O)N[C@@H](CO)C(=O)N[C@@H](CO)C(=O)N[C@H](C(=O)N[C@@H](CCC(=O)O)C(=O)N[C@H](C(=O)NCC(=O)N1CCC[C@H]1C(=O)N[C@@H](CCC(=O)O)C(=O)N[C@H](C(=O)N1CCC[C@H]1C(N)=O)[C@@H](C)O)C(C)C)[C@@H](C)O) |
